Earlier results, collected in patent publication US20120122716A1, “CELL LINE DERIVED FROM THE EPITHELIAL LINING OF THE HUMAN ENDOLYMPHATIC SAC IN THE INNER EAR” (priority 2010, published 2012).

Test system: beta defensin 2
Details: HMEEC-1 cells; via Src-dependent Raf-MEK1/2-ERK signaling pathway

B1: IL-1α: interleukin 1 alpha, cytokine (protein, UniProt P01583 113-271, looked up)
Interleukin-1 alpha: SAPFSFLSNVKYNFMRIIKYEFILNDALNQSIIRANDQYLTAAALHNLDEAVKFDMGAYKSSKDDAKITVILRISKTQLYVTAQDEDQPVLLKEMPEIPKTITGSETNLLFFWETHGTKNYFTSVAHPNLFIATKQDYWVCLAGGPPSITDFQILENQA
- beta defensin 2 expression: up-regulate
